Data published in the supplement of paper PMC10065799, “High-throughput profiling of sequence recognition by tyrosine kinases and SH2 domains using bacterial peptide display” (eLife, 2023).

What was measured:
[1] = biological target: c-Src SH2; test: SH2 binding enrichment of the phosphorylated peptide, bacterial display (enrichment ratio); higher = better substrate or ligand; peptides without Tyr show the background
[2] = biological target: Grb2 SH2 (UniProt P62993); test: as above
[3] = biological target: SHP2-C SH2; test: as above
[4] = biological target: Fyn (UniProt P06241); test: phosphorylation enrichment, bacterial display (enrichment ratio); higher = better substrate or ligand; peptides without Tyr show the background
[5] = biological target: EPHB2 (UniProt P29323); test: as above
[6] = biological target: EPHB1 (UniProt P54762); test: as above
[7] = system: c-Src; test: as above
[8] = system: Fer (mouse); test: as above
[9] = biological target: Fes (UniProt P07332); test: as above
[10] = biological target: MERTK (UniProt Q12866); test: as above
[11] = biological target: FGFR3 (UniProt P22607); test: as above
[12] = biological target: Hck (UniProt P08631); test: as above
[13] = system: AncSZ; test: as above
[14] = biological target: Jak2 (UniProt O60674); test: as above
[15] = system: c-Abl (mouse); test: as above
[16] = biological target: FGFR1 (UniProt P11362); test: as above
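Wherever SH2 binding enrichment of the phosphorylated peptide, bacterial display is given: peptide library displayed on the E. coli surface as eCPX fusions, selected cells deep-sequenced, score is each peptide's frequency after selection divided by its frequency in the input.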
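Wherever phosphorylation enrichment, bacterial display is given: 11-residue human phosphosite peptides and single-mutation variants displayed on the E. coli surface, counted by deep sequencing, each peptide's frequency after selection divided by its frequency in the unselected input library; frequency after pTyr selection over input frequency; kinase dosed for 20-30% of maximal phosphorylation in three min.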

Chain of FGFR1 (P11362 whole entry, looked up, the tested form may be a part): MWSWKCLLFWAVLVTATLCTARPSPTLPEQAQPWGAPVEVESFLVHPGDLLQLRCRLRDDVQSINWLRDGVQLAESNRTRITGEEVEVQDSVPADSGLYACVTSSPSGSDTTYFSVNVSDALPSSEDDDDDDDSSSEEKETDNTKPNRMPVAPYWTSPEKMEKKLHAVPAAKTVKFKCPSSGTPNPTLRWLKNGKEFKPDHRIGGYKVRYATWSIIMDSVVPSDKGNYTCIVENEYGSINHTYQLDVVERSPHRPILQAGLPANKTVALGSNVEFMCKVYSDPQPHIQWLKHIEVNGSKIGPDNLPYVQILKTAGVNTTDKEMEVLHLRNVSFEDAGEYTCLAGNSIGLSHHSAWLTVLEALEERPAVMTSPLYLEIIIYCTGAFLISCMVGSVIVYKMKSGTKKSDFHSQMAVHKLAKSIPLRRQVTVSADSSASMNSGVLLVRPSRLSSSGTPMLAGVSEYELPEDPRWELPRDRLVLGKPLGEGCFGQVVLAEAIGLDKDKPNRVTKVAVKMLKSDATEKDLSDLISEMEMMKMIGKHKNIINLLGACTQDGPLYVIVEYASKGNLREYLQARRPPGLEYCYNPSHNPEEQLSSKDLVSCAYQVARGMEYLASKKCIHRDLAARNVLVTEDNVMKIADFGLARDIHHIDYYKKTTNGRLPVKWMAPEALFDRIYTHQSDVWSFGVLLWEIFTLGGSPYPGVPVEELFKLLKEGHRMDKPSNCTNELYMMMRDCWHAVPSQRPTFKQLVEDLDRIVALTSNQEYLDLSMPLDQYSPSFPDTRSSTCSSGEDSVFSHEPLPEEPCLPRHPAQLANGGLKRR
Chain of FGFR3 (P22607 whole entry, looked up): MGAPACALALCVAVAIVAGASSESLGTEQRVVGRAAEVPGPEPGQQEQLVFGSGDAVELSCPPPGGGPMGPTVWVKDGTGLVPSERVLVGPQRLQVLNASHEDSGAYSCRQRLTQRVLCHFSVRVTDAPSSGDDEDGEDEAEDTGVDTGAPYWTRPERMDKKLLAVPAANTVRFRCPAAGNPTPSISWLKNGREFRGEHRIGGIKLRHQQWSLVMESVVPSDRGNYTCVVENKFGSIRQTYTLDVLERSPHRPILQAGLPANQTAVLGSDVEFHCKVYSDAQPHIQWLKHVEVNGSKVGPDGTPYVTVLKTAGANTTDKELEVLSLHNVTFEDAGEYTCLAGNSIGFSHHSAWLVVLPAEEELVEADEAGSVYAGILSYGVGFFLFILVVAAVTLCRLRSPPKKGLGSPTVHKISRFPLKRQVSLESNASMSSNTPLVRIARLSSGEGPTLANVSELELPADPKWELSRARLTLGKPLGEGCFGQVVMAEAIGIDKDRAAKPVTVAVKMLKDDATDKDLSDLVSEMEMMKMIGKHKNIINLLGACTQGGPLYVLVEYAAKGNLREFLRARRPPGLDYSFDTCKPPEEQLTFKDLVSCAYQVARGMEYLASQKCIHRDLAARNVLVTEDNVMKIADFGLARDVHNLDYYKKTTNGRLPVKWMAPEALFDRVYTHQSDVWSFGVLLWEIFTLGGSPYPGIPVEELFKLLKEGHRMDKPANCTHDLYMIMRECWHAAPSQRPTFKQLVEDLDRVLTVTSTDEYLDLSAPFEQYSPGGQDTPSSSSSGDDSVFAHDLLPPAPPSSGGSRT
Chain of EPHB2 (P29323 whole entry, looked up): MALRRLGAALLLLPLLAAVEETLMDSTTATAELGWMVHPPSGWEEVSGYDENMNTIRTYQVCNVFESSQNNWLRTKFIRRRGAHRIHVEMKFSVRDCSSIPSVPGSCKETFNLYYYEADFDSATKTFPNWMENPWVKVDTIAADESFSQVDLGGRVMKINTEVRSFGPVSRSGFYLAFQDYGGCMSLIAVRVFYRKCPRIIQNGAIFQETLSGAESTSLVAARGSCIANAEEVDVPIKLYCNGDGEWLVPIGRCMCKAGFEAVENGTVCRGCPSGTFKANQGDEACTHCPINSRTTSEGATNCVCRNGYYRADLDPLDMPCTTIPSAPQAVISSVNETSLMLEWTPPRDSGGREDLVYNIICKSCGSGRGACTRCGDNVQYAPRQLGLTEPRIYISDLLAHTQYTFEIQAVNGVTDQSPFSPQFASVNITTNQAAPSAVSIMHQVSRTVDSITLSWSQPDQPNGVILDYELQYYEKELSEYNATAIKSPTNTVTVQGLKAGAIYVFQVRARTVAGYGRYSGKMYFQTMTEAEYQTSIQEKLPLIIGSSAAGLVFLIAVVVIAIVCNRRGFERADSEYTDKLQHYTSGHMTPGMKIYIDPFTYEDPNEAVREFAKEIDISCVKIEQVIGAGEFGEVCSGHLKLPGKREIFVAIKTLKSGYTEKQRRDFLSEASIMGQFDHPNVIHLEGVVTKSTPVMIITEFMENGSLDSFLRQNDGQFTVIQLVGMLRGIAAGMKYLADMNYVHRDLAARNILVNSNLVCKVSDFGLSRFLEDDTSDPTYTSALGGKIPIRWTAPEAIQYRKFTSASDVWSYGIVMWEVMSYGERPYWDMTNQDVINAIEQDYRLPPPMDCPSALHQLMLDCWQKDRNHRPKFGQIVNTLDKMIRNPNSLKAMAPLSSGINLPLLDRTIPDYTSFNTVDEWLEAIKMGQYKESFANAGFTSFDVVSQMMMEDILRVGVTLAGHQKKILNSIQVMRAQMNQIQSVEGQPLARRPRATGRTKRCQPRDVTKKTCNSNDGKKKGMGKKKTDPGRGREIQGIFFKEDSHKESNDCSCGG
Chain of EPHB1 (P54762 whole entry, looked up): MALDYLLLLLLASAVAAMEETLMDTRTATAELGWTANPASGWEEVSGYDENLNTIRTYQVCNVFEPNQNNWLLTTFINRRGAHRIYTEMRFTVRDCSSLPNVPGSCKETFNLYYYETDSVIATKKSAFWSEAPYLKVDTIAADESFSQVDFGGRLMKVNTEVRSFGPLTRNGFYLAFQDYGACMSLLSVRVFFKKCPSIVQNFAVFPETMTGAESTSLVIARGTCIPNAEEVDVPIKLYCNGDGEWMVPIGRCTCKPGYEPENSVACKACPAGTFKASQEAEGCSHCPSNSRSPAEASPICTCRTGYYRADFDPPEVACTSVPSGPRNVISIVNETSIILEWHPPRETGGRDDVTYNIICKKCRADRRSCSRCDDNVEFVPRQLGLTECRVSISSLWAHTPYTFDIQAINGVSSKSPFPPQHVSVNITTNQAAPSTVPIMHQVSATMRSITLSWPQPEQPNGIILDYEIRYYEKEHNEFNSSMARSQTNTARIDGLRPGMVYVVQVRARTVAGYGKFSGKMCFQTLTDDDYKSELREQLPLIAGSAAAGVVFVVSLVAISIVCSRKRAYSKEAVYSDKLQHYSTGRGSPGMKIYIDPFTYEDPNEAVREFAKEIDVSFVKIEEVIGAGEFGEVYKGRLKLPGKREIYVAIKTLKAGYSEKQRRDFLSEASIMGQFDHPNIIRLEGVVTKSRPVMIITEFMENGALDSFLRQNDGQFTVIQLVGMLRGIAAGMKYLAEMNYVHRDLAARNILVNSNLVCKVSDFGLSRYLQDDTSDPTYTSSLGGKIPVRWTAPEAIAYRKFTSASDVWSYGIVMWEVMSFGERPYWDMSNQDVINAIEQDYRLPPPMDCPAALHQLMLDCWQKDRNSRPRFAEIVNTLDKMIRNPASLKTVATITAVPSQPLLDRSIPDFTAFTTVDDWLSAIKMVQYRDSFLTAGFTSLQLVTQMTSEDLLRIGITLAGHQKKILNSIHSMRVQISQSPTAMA
Chain of Grb2 SH2 (P62993 whole entry, looked up): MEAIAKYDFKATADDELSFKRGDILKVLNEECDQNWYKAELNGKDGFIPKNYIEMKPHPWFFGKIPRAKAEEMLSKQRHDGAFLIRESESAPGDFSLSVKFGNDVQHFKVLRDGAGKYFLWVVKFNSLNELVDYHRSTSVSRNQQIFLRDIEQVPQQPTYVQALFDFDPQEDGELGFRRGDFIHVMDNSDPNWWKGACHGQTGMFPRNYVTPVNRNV
Chain of Fes (P07332 whole entry, looked up): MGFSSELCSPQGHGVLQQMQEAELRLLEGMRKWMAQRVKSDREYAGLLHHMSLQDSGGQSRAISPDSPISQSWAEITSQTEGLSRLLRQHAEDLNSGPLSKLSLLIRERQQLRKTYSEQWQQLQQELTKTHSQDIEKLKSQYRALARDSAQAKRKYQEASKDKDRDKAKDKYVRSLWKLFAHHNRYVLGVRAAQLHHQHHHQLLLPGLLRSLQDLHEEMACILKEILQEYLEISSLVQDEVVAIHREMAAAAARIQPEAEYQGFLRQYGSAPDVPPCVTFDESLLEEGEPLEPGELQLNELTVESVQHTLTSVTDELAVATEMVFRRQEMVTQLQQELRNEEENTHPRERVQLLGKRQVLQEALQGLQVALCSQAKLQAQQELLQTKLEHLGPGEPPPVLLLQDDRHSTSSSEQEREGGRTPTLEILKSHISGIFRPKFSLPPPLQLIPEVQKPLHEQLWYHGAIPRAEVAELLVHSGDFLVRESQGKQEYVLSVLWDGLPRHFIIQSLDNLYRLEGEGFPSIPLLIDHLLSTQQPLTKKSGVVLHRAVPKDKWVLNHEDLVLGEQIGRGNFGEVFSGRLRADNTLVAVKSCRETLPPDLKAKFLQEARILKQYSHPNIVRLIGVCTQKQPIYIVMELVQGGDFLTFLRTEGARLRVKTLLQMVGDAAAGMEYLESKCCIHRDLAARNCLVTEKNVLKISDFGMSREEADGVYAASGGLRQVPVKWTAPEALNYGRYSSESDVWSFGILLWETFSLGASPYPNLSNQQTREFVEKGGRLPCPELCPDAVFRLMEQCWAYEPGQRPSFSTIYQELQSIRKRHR

Sequence	SH2 binding enrichment [1]	SH2 binding enrichment [2]	SH2 binding enrichment [3]	phosphorylation enrichment [4]	phosphorylation enrichment [5]	phosphorylation enrichment [6]	phosphorylation enrichment [7]	phosphorylation enrichment [8]	phosphorylation enrichment [9]	phosphorylation enrichment [10]	phosphorylation enrichment [11]	phosphorylation enrichment [12]	phosphorylation enrichment [13]	phosphorylation enrichment [14]	phosphorylation enrichment [15]	phosphorylation enrichment [16]
TSPALYRLDLD [TRIL_Y352_A347T]	0.36	0.685	0.465	0.74	0.51	0.567	1.44	0.499	1.24	0.395	0.721	0.817	0.943	0.859	0.741	0.529
EEVKAYLDFGE [CHAC2_Y78_R82G]	0.383	0.73	0.59	0.448	0.535	0.719	0.574	0.558	1.32	0.422	0.942	0.564	1.3	1.62	0.944	0.473
TKDTFYKQPMF [GBA_Y451]	0.401	0.571	0.692	0.419	0.37	0.257	0.42	0.362	0.638	0.385	0.42	0.39	0.583	0.535	0.954	0.389
KLQKYYRQNPD [EHHADH_Y683]	0.503	0.948	0.694	0.348	0.464	0.765	0.42	0.417	0.591	0.371	0.419	0.448	0.565	0.474	0.482	0.413
QGFDTYFGFLL [ARSB_Y165_R160Q_YF]	0.345	0.717	0.724	11.4	7.17	4.39	7.09	8.02	2.08	6.29	5.31	8.45	3.29	4.81	1.33	6.18
SRIWVYNHFRW [BRCA2_Y2621_YF]	1.12	1.15	1.37	0.423	0.612	0.597	0.479	0.413	1.29	0.44	0.78	0.477	1.15	1.13	0.853	0.435
LTVVIYVLIGR [EPHA3_Y561]	0.918	1.64	1.36	0.567	1.77	1.05	0.643	1.83	2.13	0.697	1.26	0.839	1.39	0.844	1.9	0.691
HPFHVYSQPGM [BAG3_Y114_P115S]	18.1	1.39	0.806	1.24	0.945	0.649	0.937	0.719	1.39	0.804	0.908	1.74	1.78	0.984	0.847	0.753
ENRKFYMDLKE [PURA_Y156_YF]	0.506	0.841	0.558	0.408	0.691	0.492	0.375	0.487	0.989	0.432	0.738	0.469	0.917	0.963	0.557	0.503
GQKTLYSFFSP [UNG_Y8]	0.589	1.04	1.6	4.16	2.12	2.58	4.32	8.62	1.2	10.3	1.42	4.06	0.984	0.908	2.05	1.18
LIHLHYIRKDF [BBS4_Y43_YF]	1.6	2.06	2.75	0.871	1.01	1.17	0.527	0.984	1.18	0.471	1.22	0.637	1.51	0.787	0.612	0.937
CHSDDYVHISL [TSC1_Y406]	0.539	0.762	0.593	0.502	0.65	0.768	0.495	0.491	1.13	0.436	1.07	0.554	1.27	0.958	0.781	1.23
NVDGKYSFLKV [GRM3_Y478_G475D_YF]	0.826	1.06	0.944	0.383	0.356	0.394	0.439	0.48	0.824	0.508	0.505	0.431	0.624	0.719	0.534	0.426
QAEEWYFGKMG [YES1_Y159]	0.359	0.942	1.09	0.773	0.48	0.498	0.787	0.603	1.13	0.439	1.07	0.847	1.28	1.44	1.05	1.17
VNFGAYINDFN [GLB1_Y488_K493N_YF]	1.48	3.12	0.674	0.451	0.6	0.633	0.397	0.571	1.07	0.409	0.708	0.46	0.954	0.899	0.788	0.474
